Data on six sequences can be found in paper PMC7593903.

One series addresses T1, ZafA (Aspergillus fumigatus (FGSC A1163 akuB(KU80)-delta pyrG1 is the study strain; cDNA source 'fungal cDNA')) (UniProt A3QX02).
T1 sequence: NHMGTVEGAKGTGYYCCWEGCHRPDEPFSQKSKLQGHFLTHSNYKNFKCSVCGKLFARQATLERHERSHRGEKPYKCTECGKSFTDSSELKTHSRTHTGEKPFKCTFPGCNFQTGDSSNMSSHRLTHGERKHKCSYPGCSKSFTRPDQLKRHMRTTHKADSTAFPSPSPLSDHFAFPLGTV
The experiment in a line: EMSA. As to conditions: 10 mM Tris-HCl pH 8.0, 50 mM NaCl, 1 mM MgCl2, 500 uM EDTA, 500 uM DTT, 4% glycerol; 500 ng ZafA, 5 ng probe; 30 min at 25 C; Zn/Cu added 10 min after start of …. (A gel shift assay detects complexes by their altered migration in electrophoresis.)
In the case of “AAGGGCCCAGGGCCTGTCTTGTTGTACGACTTCACTTTCTCCCAGGGTGCCACTGCTTGCTATCTCTATGTAGATAACCGCTGTCTTTCCTCTTTTTTTGACCCTTTCTTCTATTGCTCTGGTCTGCT (double strand) [CtrC promoter EMSA probe, 128 bp]”, the binding result is reported as “binds”. For the sequence “CTCAAAGCTCGCTCATCGGATTTTTGATTATCAGTTTTGCGAGACCAAGCATGATAGTGACAGAGCATTCAAGGTGAGAATGTGAAGAATGCGTGGCGGCGTAGCATTCTTACT (double strand) [CtrA2 promoter EMSA probe, 114 bp]”, the binding entry is recorded as “no binding”. For “TACCAGGGCCCCTTTCCCTCAAGTTGCTCGCACAGATCTGGATGTTACTTTCATCGAATATATACACGTGGGAAGCTCCCAAGGTCCTCTTGGAT (double strand) [ZafA promoter EMSA probe, 95 bp]”, the binding entry was “binds”. For the sequence “TGCCGCCATTGTTCAGCAGTGCGGTGCTGTCAAGGTCAAGGTCAAGGACGGCCTTCTCCAAGGATGTCACATACAAAGGGAATAGACTGAATAAATCATTTCCTCGGCAACGATCCGA (double strand) [CtrA1 promoter EMSA probe, 118 bp]”, the binding entry is given as “no binding”.

A further series addresses T1, ZafA (Aspergillus fumigatus (FGSC A1163 akuB(KU80)-delta pyrG1 is the study strain; cDNA source 'fungal cDNA')). Description: competition. As to conditions: 10 mM Tris-HCl pH 8.0, 50 mM NaCl, 1 mM MgCl2, 500 uM EDTA, 500 uM DTT, 4% glycerol; 500 ng ZafA, 5 ng probe; 30 min at 25 C; Zn/Cu added 10 min after start of ….
Take “AAGGGCCCAGGGCCTGTCTTGTTGTACGACTTCACTTTCTCCCAGGGTGCCACTGCTTGCTATCTCTATGTAGATAACCGCTGTCTTTCCTCTTTTTTTGACCCTTTCTTCTATTGCTCTGGTCTGCT (double strand) [CtrC promoter fragment, unlabeled]”: the binding entry is given as “binds”. For the sequence “AGCAGACCAGAGCAATAGAAGAAAGGGTCAAAAAAAGAGGAAAGACAGCGGTTATCTACATAGAGATAGCAAGCAGTGGCTGGGACGGAGAAAGTGAAGTCGTACAACAAGACAGGCCCTGGGCCCTT (double strand)”, the binding entry is given as “no binding”.
